The values below come from patent publication US20230143604A1, “QW DOSING OF GIP RECEPTOR AGONIST PEPTIDE COMPOUNDS AND USES THEREOF” (TAKEDA PHARMACEUTICAL COMPANY LIMITED, priority 2020, published 2023).

The target of assay [1] is T1, full-length human GIPR with an N-terminal FLAG tag (human, UniProt P48546 22-466).
T1 sequence (looked up): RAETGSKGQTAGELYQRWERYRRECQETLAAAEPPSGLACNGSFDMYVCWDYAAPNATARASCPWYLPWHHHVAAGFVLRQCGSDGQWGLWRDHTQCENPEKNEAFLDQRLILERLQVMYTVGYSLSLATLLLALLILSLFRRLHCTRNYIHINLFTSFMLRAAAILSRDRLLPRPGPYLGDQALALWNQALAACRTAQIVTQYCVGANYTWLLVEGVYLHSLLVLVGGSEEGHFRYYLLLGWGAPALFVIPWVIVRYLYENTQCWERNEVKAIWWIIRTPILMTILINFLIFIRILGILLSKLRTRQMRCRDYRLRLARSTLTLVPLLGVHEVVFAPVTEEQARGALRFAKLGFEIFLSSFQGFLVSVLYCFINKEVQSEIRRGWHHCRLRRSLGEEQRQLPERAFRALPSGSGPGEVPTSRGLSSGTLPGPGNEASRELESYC
Kind of assay: cell-based or functional assay.

Assay [2] concerns the target full-length human GLP-1R with an N-terminal FLAG tag (human, UniProt P43220 24-463). Kind of assay: cell-based or functional assay.

Starred links: 1 amine or outer side, 2 acyl side, 3 side chain; linkers in the order of their positions; H or OH if unused. Non-standard residues stand in square brackets, D forms with d. Groups on a side chain read outwards from the residue. No end group written: not given here. *: point of attachment. C18 diacid = O=C(O)CCCCCCCCCCCCCCCCC(=O)*; C17 diacid = O=C(O)CCCCCCCCCCCCCCCC(=O)*; γGlu = O=C(O)[C@H](CCC(=O)[*:2])N[*:1]; NMeY = CN[C@@H](Cc1ccc(O)cc1)C(=O)O; AEEA = NCCOCCOCC(=O)O; E1 = not defined here; K1 = not defined here; Aib = CC(C)(N)C(=O)O

B1: Compound No. 125 (peptide)
peptide: [NMeY][Aib]EGTFISDYSIALDR[Aib]AQ[Aib]K([AEEA-AEEA-γGlu-γGlu-C17 diacid])FVNWLLAQSPG-OH
modifications: N-terminus assumed
SMILES: CC[C@H](C)[C@H](NC(=O)[C@H](CO)NC(=O)[C@H](Cc1ccc(O)cc1)NC(=O)[C@H](CC(=O)O)NC(=O)[C@H](CO)NC(=O)[C@@H](NC(=O)[C@H](Cc1ccccc1)NC(=O)[C@@H](NC(=O)CNC(=O)[C@H](CCC(=O)O)NC(=O)C(C)(C)NC(=O)[C@H](Cc1ccc(O)cc1)NC)[C@@H](C)O)[C@@H](C)CC)C(=O)N[C@@H](C)C(=O)N[C@@H](CC(C)C)C(=O)N[C@@H](CC(=O)O)C(=O)N[C@@H](CCCNC(=N)N)C(=O)NC(C)(C)C(=O)N[C@@H](C)C(=O)N[C@@H](CCC(N)=O)C(=O)NC(C)(C)C(=O)N[C@@H](CCCCNC(=O)COCCOCCNC(=O)COCCOCCNC(=O)CC[C@H](NC(=O)CC[C@H](NC(=O)CCCCCCCCCCCCCCCC(=O)O)C(=O)O)C(=O)O)C(=O)N[C@@H](Cc1ccccc1)C(=O)N[C@H](C(=O)N[C@@H](CC(N)=O)C(=O)N[C@@H](Cc1c[nH]c2ccccc12)C(=O)N[C@@H](CC(C)C)C(=O)N[C@@H](CC(C)C)C(=O)N[C@@H](C)C(=O)N[C@@H](CCC(N)=O)C(=O)N[C@@H](CO)C(=O)N1CCC[C@H]1C(=O)NCC(=O)O)C(C)C
With B1, in assay [1], the “Human GIPR cAMP EC50, HEK293T” value was found to be 0.5 pM. Besides, the “Human GLP1R cAMP EC50, HEK293T” value in assay [2] was found to be 20 nM.

B2: Compound No. 110 (peptide)
peptide: [NMeY][Aib]EGTFISDYSI[Aib]LDR[Aib]AQ[Aib]K([AEEA-AEEA-γGlu-γGlu-C18 diacid])FVEWLLAQKG-OH
modifications: N-terminus assumed
SMILES: CC[C@H](C)[C@H](NC(=O)[C@H](Cc1ccccc1)NC(=O)[C@@H](NC(=O)CNC(=O)[C@H](CCC(=O)O)NC(=O)C(C)(C)NC(=O)[C@H](Cc1ccc(O)cc1)NC)[C@@H](C)O)C(=O)N[C@@H](CO)C(=O)N[C@@H](CC(=O)O)C(=O)N[C@@H](Cc1ccc(O)cc1)C(=O)N[C@@H](CO)C(=O)N[C@H](C(=O)NC(C)(C)C(=O)N[C@@H](CC(C)C)C(=O)N[C@@H](CC(=O)O)C(=O)N[C@@H](CCCNC(=N)N)C(=O)NC(C)(C)C(=O)N[C@@H](C)C(=O)N[C@@H](CCC(N)=O)C(=O)NC(C)(C)C(=O)N[C@@H](CCCCNC(=O)COCCOCCNC(=O)COCCOCCNC(=O)CC[C@H](NC(=O)CC[C@H](NC(=O)CCCCCCCCCCCCCCCCC(=O)O)C(=O)O)C(=O)O)C(=O)N[C@@H](Cc1ccccc1)C(=O)N[C@H](C(=O)N[C@@H](CCC(=O)O)C(=O)N[C@@H](Cc1c[nH]c2ccccc12)C(=O)N[C@@H](CC(C)C)C(=O)N[C@@H](CC(C)C)C(=O)N[C@@H](C)C(=O)N[C@@H](CCC(N)=O)C(=O)N[C@@H](CCCCN)C(=O)NCC(=O)O)C(C)C)[C@@H](C)CC
For the molecule B2, in assay [1], the “Human GIPR cAMP EC50, HEK293T” value was found to be 0.3 pM. Also, in assay [2], the “Human GLP1R cAMP EC50, HEK293T” value was found to be 100 nM.
In the same order, the values of [NMeY][Aib]EGTFISDYSIA[K1]DRA[E1]Q[Aib]K([AEEA-AEEA-γGlu-γGlu-C18 diacid])FVNWLLAQRG-OH (reading uncertain; also: 'K1' at 14 and 'E1' at 18, not explained) [Compound No. 123] are 0.5 pM and 74.1 nM.
Take [NMeY][Aib]EGTFISDYSI[K1]LDR[E1]AQ[Aib]K([AEEA-AEEA-γGlu-γGlu-C18 diacid])FVNWLLAQRG-OH (reading uncertain; also: 'K1' at 13 and 'E1' at 17, not explained) [Compound No. 122]: in assay [1], the “Human GIPR cAMP EC50, HEK293T” value amounted to 0.8 pM. In assay [2], the “Human GLP1R cAMP EC50, HEK293T” value was 3.55 nM.
In the same order, the values of YXEGTFISDYSIALDRXAQXDFVEWLLAQRG (N-methyl Tyr 1; Aib at 2,20; Lys(G5-C18 diacid) at 17; C-terminal OH) [Compound No. 115] are 0.3 pM and 40.7 nM.

B3: Compound No. 121 (peptide)
peptide: YXEGTFISDYSIAXDRXAQKDFVEWLLAQRG
modifications: N-methyl Tyr 1; Aib at 2,17; Lys(G5-C18 diacid) at 14; 'K1' at 20 and 'E1' at 24 as printed; C-terminal OH
Turning to B3, in assay [1], the “Human GIPR cAMP EC50, HEK293T” value worked out at 0.5 pM. In assay [2], the “Human GLP1R cAMP EC50, HEK293T” value is 89.1 nM.
In the same order, the values of YXEGTFISDYSIAXDRXAQXDFVNWLLAQSPG (N-methyl Tyr 1; Aib at 2,17,20; Lys(G5-C20 diacid) at 14; C-terminal OH) [Compound No. 111] are 0.1 pM and 14.1 nM.

B4: Compound No. 124 (peptide)
peptide: YXEGTFISDYSIAXDRXAQKDFVEWLLAQSPG
modifications: N-methyl Tyr 1; Aib at 2,17; Lys(G5-C18 diacid) at 14; 'K1' at 20 and 'E1' at 24 as printed; C-terminal OH
Take B4: the “Human GIPR cAMP EC50, HEK293T” value in assay [1] was 0.3 pM. Also, the “Human GLP1R cAMP EC50, HEK293T” value in assay [2] came out at 123 nM.
In the same order, the values of YXEGTFISDYSIAXDRXAQXDFVEWLLAQSPG (N-methyl Tyr 1; Aib at 2,17,20; Lys(G5-C18 diacid) at 14; C-terminal OH) [Compound No. 118] are 0.7 pM and 91.2 nM.
In the same order, the values of YXEGTFISDYSIAXDRXAQRDFVEWLLAQSPG (N-methyl Tyr 1; Aib at 2,17; Lys(G5-C18 diacid) at 14; C-terminal OH) [Compound No. 120] are 0.3 pM and 15.8 nM.
In the same order, the values of YXEGTFISDYSIALDRXAQXDFVNWLLAQSPG (N-methyl Tyr 1; Aib at 2,20; Lys(G5-C18 diacid) at 17; C-terminal OH) [Compound No. 113] are 0.3 pM and 13.5 nM.
Take YXEGTFISDYSIAXDRXAQXNFVNWLLAQSPG (N-methyl Tyr 1; Aib at 2,17,20; Lys(G5-C18 diacid) at 14; C-terminal OH) [Compound No. 114]: the “Human GIPR cAMP EC50, HEK293T” value in assay [1] was found to be 0.1 pM. Also, the “Human GLP1R cAMP EC50, HEK293T” value in assay [2] is 11.7 nM.
In the same order, the values of [NMeY][Aib]EGTFISDYSIALDR[Aib]AQ[Aib]K([GGPAPAPgE-C18 diacid])FVNWLLAQSPG-OH [Compound No. 117] are 2 pM and 44.7 nM.

B5: Compound No. 119 (peptide)
peptide: [NMeY][Aib]EGTFISDYSIALDR[Aib]AQ[Aib]K([AEEA-AEEA-γGlu-γGlu-C18 diacid])FVEWLLAQSPG-OH
modifications: N-terminus assumed
SMILES: CC[C@H](C)[C@H](NC(=O)[C@H](CO)NC(=O)[C@H](Cc1ccc(O)cc1)NC(=O)[C@H](CC(=O)O)NC(=O)[C@H](CO)NC(=O)[C@@H](NC(=O)[C@H](Cc1ccccc1)NC(=O)[C@@H](NC(=O)CNC(=O)[C@H](CCC(=O)O)NC(=O)C(C)(C)NC(=O)[C@H](Cc1ccc(O)cc1)NC)[C@@H](C)O)[C@@H](C)CC)C(=O)N[C@@H](C)C(=O)N[C@@H](CC(C)C)C(=O)N[C@@H](CC(=O)O)C(=O)N[C@@H](CCCNC(=N)N)C(=O)NC(C)(C)C(=O)N[C@@H](C)C(=O)N[C@@H](CCC(N)=O)C(=O)NC(C)(C)C(=O)N[C@@H](CCCCNC(=O)COCCOCCNC(=O)COCCOCCNC(=O)CC[C@H](NC(=O)CC[C@H](NC(=O)CCCCCCCCCCCCCCCCC(=O)O)C(=O)O)C(=O)O)C(=O)N[C@@H](Cc1ccccc1)C(=O)N[C@H](C(=O)N[C@@H](CCC(=O)O)C(=O)N[C@@H](Cc1c[nH]c2ccccc12)C(=O)N[C@@H](CC(C)C)C(=O)N[C@@H](CC(C)C)C(=O)N[C@@H](C)C(=O)N[C@@H](CCC(N)=O)C(=O)N[C@@H](CO)C(=O)N1CCC[C@H]1C(=O)NCC(=O)O)C(C)C
Take B5: the “Human GIPR cAMP EC50, HEK293T” value in assay [1] turned out to be 0.9 pM. Further, in assay [2], the “Human GLP1R cAMP EC50, HEK293T” value is 50.1 nM.

B6: Compound No. 10 (peptide)
peptide: [NMeY][Aib]EGTFISDYSIAK([AEEA-AEEA-γGlu-C17 diacid])DR[Aib]AQ[Aib]NFVNWLLAQS-OH
modifications: N-terminus assumed
SMILES: CC[C@H](C)[C@H](NC(=O)[C@H](CO)NC(=O)[C@H](Cc1ccc(O)cc1)NC(=O)[C@H](CC(=O)O)NC(=O)[C@H](CO)NC(=O)[C@@H](NC(=O)[C@H](Cc1ccccc1)NC(=O)[C@@H](NC(=O)CNC(=O)[C@H](CCC(=O)O)NC(=O)C(C)(C)NC(=O)[C@H](Cc1ccc(O)cc1)NC)[C@@H](C)O)[C@@H](C)CC)C(=O)N[C@@H](C)C(=O)N[C@@H](CCCCNC(=O)COCCOCCNC(=O)COCCOCCNC(=O)CC[C@H](NC(=O)CCCCCCCCCCCCCCCC(=O)O)C(=O)O)C(=O)N[C@@H](CC(=O)O)C(=O)N[C@@H](CCCNC(=N)N)C(=O)NC(C)(C)C(=O)N[C@@H](C)C(=O)N[C@@H](CCC(N)=O)C(=O)NC(C)(C)C(=O)N[C@@H](CC(N)=O)C(=O)N[C@@H](Cc1ccccc1)C(=O)N[C@H](C(=O)N[C@@H](CC(N)=O)C(=O)N[C@@H](Cc1c[nH]c2ccccc12)C(=O)N[C@@H](CC(C)C)C(=O)N[C@@H](CC(C)C)C(=O)N[C@@H](C)C(=O)N[C@@H](CCC(N)=O)C(=O)N[C@@H](CO)C(=O)O)C(C)C
As for B6, the “Human GIPR cAMP EC50, HEK293T” value in assay [1] worked out at 0.2 pM. Also, the “Human GLP1R cAMP EC50, HEK293T” value in assay [2] turned out to be 37.2 nM.
In the same order, the values of [NMeY][Aib]EGTFISDYSI[Aib]LDR[Aib]K([AEEA-AEEA-γGlu-γGlu-C18 diacid])A[Aib]NFVNWLLAQSPSSGAPPPS-NH2 [Compound No. 109] are 0.4 pM and 204 nM.
